From patent US10550151B2, “Cell-penetrating compositions and methods using same” (Yale University, priority 2013, dated 2020)
Where no end group is shown, it is not given here.

What was measured:
eNOS = molecular target: T1, eNOS (Bos taurus, UniProt P29473); assay: VEGF-induced NO release by cultured BAEC (NO chemiluminescence); type: cell-based, bovine; settings: for inhibition of VEGF-induced NO release: 6 h pretreatment; for effect on basal (unstimulated) NO release: six-hour pretreatment, no VEGF
T1 construct: effect of Endo5 fused to Cav (endo5-Cav) on NO release by cultured BAEC; endogenous in cells; host or cells: BAEC (cultured endothelial cells)
T1 sequence (P29473 2-1205 limits assumed): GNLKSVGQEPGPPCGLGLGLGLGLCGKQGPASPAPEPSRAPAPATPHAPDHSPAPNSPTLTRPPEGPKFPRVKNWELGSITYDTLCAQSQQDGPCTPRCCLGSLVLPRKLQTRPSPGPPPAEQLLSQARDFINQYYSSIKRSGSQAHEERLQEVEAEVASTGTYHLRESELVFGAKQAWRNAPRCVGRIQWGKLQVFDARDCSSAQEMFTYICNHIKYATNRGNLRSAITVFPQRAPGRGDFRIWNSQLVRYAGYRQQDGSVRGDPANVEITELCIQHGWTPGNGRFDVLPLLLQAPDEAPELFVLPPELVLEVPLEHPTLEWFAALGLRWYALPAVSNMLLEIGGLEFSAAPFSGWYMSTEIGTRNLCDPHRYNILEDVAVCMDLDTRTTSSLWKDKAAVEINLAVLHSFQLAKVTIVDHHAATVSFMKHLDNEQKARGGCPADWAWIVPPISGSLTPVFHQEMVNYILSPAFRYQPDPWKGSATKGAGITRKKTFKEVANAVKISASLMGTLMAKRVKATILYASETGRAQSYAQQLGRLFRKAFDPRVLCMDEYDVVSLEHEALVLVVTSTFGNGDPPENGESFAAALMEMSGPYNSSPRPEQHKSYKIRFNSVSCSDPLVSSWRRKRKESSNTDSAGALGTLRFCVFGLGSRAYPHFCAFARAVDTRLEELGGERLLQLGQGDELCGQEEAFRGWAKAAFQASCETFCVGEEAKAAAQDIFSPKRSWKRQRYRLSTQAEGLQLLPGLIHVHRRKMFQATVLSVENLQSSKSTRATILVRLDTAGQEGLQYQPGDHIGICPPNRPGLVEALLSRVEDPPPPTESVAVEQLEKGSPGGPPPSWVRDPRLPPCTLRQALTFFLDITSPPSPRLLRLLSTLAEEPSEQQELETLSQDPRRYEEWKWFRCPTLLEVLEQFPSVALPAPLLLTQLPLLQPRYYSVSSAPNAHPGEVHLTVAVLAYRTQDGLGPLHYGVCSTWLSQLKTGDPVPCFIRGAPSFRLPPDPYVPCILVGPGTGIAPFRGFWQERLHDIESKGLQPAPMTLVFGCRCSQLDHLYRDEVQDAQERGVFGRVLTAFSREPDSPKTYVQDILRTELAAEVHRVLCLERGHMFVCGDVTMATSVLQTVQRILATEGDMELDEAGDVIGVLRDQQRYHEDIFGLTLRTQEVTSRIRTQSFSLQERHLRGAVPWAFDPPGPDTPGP
Description: Briefly, confluent BAEC were incubated in serum-free DMEM for 6 hours with peptides. Media was removed and fresh serum-free DMEM was added, with or without VEGF (10^−9 M) for 30 min. Media was collected, cells were trypsinized and counted, and nitrites levels in the supernatant were determined by using a Sievers NO chemiluminescence analyzer.
AP-Cav blocks agonist-induced eNOS activity in cultured endothelial cells (Bucci et al., 2000, Nat. Med. 6:1362-7), and this biological activity is dependent on AP-Cav's internalization, dosage and pretreatment time. In the present study, the uptake potential of Endo5 was compared with that of AP by testing the effect of Endo5 fused to Cav (endo5-Cav) on NO release by cultured BAEC.

HUVEC = assay: CPP imaging in live HUVEC (epifluorescence, pulse/chase); type: cell-based, human; settings: for staining pattern after 1 h pulse: 37° C.; for staining pattern after two-hour chase: 2 h chase in absence of CPP
Description: Freshly isolated HUVEC were grown in M199 media supplemented with glutamine, 10% FBS and endothelial cell growth supplement on Petri dishes with glass bottom. Since CPPs bind non-specifically to glass, the background fluorescence was reduced by pretreating glass-bottom Petri dishes with a blocking solution containing unlabelled AP and Endo5 for 30 min (5×10^−5 M) in colorless M199 media with 1% FBS. After cell seeding, media was removed and carboxyfluorescin-labeled Endo5 and Rhodamine-labeled AP were added to cells (10^−5 M) and cells were incubated at 37° C. and 5% CO2 for 1 hour (pulse). Media was removed, cells were rinsed once with warm culture media and peptide uptake was rapidly visualized on a Zess Axiovert inverted fluorescence microscope by performing a Z-stack of captured images followed by volume deconvolution (Openlab software). The new media was left on cells for an additional 2 hours (total 3 hours) to chase CPP localization, and cells were visualized again (chase).
In the present study, epifluorescence microscopy experiments were performed in live HUVEC to compare the uptake mechanism of Endo5 to AP. After blocking glass bottom Petri dishes with unlabelled AP and Endo5 to minimize non-specific binding of labeled peptides, freshly isolated HUVEC were grown to 50% confluent and labeled with a “pulse” of carboxyfluorescein-Endo5 and rhodamine-AP (10^−6M) for 1 h, rinsed, followed by a two-hour “chase” for a total of 3 hours. Deconvoluted images were captured after the “pulse” and “chase” periods. […] (FIG. 5A). Nuclear staining was nearly completely absent (dark central area).

[1] = Peptide solubility in NO release dose-response experiment; type: physicochemical; settings: above 2.5×10^-5 M
[2] = peptide 10^-5 M, VEGF 10^-9 M 30 min

## RRPPR [Endo5, short five-amino acid cell-permeable peptide]
eNOS; [2]
  inhibition of VEGF-induced NO release: no significant effect
eNOS; peptide 10^-5 M
  effect on basal (unstimulated) NO release: no significant effect
HUVEC
  staining pattern after 1 h pulse: diffuse punctate cytoplasmic staining
  staining pattern after two-hour chase: more concentrated rather than diffuse pattern

## RQIKIWFQNRRMKWKK [AP, reference compound]
eNOS; [2]
  inhibition of VEGF-induced NO release: no significant effect
eNOS; peptide 10^-5 M
  effect on basal (unstimulated) NO release: no significant effect
HUVEC
  staining pattern after 1 h pulse: diffuse punctate cytoplasmic staining
  staining pattern after two-hour chase: more concentrated rather than diffuse pattern

## RQIKIWFQNRRMKWKKDGIWKASFTTFTVTKYWFYR [AP-Cav]
[1]
  solubility limit: peptide insolubility at greater dose

## Endo5-CavAB: Endo5 fused to the Cav AB domain (caveolin-1 amino acids 82-95, SEQ ID NO: 6); a 19-mer peptide (RRPPRDGIWKASFTTFTVT)
eNOS; peptide 2×10^-6 M
  inhibition of VEGF-induced NO release: 49%
eNOS; [2]
  inhibition of VEGF-induced NO release: completely blocked
